Columns and labels:
[1] = target: α4β1 integrin on mouse B16 melanoma cells and mouse RAW macrophage cells (mouse) (UniProt Q00651); test: cell-based or functional assay
[2] = target: α9β1 integrin on mouse RAW macrophage cells (mouse) (UniProt B8JK39); test: cell-based or functional assay
Chain of α9β1 integrin on mouse RAW macrophage cells (mouse) (B8JK39 29-1036, chain 1 of 2): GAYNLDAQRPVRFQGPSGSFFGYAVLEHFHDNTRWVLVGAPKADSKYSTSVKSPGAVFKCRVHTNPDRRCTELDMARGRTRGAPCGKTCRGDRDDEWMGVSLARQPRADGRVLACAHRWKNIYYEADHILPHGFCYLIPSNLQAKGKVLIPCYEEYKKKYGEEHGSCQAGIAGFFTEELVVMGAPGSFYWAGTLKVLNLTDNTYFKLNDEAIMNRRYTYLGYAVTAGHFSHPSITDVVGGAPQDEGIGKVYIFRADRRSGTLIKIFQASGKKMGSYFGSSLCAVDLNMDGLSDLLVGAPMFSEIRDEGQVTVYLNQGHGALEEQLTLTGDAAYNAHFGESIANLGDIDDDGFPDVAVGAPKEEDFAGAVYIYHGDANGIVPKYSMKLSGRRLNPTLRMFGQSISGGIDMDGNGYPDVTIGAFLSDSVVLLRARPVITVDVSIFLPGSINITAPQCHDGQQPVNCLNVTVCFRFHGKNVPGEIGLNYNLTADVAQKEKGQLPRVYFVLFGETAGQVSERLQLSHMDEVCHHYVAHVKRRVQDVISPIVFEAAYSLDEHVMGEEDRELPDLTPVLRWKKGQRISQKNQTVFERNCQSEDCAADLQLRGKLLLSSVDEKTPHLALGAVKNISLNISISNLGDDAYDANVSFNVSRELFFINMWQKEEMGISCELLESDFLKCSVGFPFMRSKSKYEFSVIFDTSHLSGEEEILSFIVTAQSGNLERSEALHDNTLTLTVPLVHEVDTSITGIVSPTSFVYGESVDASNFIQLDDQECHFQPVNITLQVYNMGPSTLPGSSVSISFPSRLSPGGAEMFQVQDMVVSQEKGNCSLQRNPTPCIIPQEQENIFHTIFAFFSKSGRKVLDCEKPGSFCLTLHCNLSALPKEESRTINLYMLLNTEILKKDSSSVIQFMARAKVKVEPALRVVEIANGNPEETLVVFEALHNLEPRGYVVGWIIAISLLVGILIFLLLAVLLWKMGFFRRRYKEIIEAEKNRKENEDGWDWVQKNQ
Chain of α9β1 integrin on mouse RAW macrophage cells (mouse) (P09055 21-798, chain 2 of 2, further chain): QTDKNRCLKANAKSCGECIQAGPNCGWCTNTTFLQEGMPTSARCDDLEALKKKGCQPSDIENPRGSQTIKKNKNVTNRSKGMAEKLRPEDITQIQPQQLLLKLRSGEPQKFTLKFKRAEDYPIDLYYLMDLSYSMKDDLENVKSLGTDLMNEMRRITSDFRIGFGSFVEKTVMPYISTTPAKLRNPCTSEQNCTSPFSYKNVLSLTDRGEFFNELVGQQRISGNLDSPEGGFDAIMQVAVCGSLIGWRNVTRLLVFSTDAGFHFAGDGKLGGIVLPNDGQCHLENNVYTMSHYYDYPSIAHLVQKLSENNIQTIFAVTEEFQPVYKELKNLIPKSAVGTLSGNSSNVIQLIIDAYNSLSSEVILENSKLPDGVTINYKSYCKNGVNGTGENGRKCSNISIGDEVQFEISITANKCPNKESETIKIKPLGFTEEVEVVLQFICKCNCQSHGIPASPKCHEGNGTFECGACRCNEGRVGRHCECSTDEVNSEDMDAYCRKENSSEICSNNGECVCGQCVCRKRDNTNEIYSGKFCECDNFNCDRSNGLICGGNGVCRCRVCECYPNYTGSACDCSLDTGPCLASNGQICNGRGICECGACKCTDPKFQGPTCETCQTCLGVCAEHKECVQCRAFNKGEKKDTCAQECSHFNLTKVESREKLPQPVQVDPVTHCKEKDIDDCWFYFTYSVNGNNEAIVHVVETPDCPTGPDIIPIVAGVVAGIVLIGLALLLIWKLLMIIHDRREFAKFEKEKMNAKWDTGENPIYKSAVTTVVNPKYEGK

Chain of α4β1 integrin on mouse B16 melanoma cells and mouse RAW macrophage cells (mouse) (Q00651 41-1039, chain 1 of 2): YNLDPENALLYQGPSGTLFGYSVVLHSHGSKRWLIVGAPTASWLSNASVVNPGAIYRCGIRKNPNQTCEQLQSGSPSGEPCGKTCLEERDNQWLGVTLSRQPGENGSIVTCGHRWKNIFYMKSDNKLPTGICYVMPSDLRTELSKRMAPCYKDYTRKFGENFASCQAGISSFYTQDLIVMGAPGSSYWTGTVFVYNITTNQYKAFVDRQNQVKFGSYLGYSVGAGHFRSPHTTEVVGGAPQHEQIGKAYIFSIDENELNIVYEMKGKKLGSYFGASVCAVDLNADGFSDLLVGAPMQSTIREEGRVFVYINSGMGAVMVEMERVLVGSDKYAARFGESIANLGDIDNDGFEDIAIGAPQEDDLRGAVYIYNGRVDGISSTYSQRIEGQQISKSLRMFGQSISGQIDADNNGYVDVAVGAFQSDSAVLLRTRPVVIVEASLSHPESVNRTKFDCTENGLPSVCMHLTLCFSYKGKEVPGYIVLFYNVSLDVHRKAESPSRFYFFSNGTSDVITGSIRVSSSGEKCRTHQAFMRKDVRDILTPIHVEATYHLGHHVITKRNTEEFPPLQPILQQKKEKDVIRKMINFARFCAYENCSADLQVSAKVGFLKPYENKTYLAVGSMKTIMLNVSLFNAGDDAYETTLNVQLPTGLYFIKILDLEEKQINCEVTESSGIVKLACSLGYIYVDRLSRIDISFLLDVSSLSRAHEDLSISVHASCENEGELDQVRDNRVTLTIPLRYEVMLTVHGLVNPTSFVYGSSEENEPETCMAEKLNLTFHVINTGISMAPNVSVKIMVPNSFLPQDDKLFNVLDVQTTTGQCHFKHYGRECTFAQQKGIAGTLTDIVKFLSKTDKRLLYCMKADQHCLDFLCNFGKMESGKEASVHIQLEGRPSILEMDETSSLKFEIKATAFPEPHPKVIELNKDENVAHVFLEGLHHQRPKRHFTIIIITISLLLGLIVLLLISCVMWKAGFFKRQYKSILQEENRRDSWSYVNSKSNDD
Chain of α4β1 integrin on mouse B16 melanoma cells and mouse RAW macrophage cells (mouse) (P09055 21-798, chain 2 of 2, further chain): as the sequence (P09055 21-798, chain 2 of 2, further chain) above

PGE2 secretion in RAW cells [1]: 4.2 fold | PGE2 secretion in RAW cells [2]: 4.2 fold
Substance: OPN-RRAA (OPN-R in which the RGD sequence has been mutated to RAA) (ligand)

Source: patent US20230255948A1
